Data on one protein can be found in FireProtDB (doi:10.1021/bi00102a015).

The conditions of this data set: Rhodobacter capsulatus (strain ATCC BAA-309 / NBRC 16581 / SB1003); pH 7.5; 25 °C; GdnHCl; CD; Tris-HCl 20 mM; NaCl 40 mM; whole UniProt chain shown.

B1: Cytochrome c2 wild type, P00094 (protein)
chain: MKISLTAATVAALVLAAPAFAGDAAKGEKEFNKCKTCHSIIAPDGTEIVKGAKTGPNLYGVVGRTAGTYPEFKYKDSIVALGASGFAWTEEDIATYVKDPGAFLKEKLDDKKAKTGMAFKLAKGGEDVAAYLASVVK
As for B1, the denaturant m value was 2.7 kcal/mol/M, the “denaturant midpoint (higher = more stable)” value came to 1.7 M and the unfolding free energy is 4.4 kcal/mol.
